Experimental data as given in US20050256058.

T1: PhPr-Leu-ALys-CH═CH-COOEt
T1 chain: LK

T2: Cbz-Ala-Ala-AAsn-CH═CH-COOEt
T2 chain: AAN

T3: Cbz-Ala-Ala-AAsn-CH═CH-CON(Bzl)-1-CH2-Napth
T3 chain: AAN

T4: PhPr-Leu-AOrn-CH═CH-COOEt
T4 chain: LX

T5: Cbz-Ala-Ala-AAsn-CH═CH-CONHCH2CH2Ph
T5 chain: AAN

T6: Cbz-Ala-Ala-AAsn-CH═CH-CON(CH3)Bzl
T6 chain: AAN

T7: Cbz-Ala-Ala-AAsn-CH═CH-CON(Bzl)2
T7 chain: AAN

T8: Cbz-Ala-Ala-AAsn-CH═CH-CO-indoline
T8 chain: AAN

T9: Cbz-Ala-Ala-AAsn-CH═CH-CON(Bzl)-2-CH2-Napth
T9 chain: AAN

B1: Caspase-6 (protein)
chain: AFYKREMFDPAEKYKMDHRRRGIALIFNHERFFWHLTLPERRGTCADRDNLTRRFSDLGFEVKCFNDLKAEELLLKIHEVSTVSHADADCFVCVFLSHGEGNHIYAYDAKIEIQTLTGLFKGDKCHSLVGKPKIFIIQACRGNQHDVPVIPLDVVDNQTEKLDTNITEVDAASVYTLPAGADFLMCYSVAEGYYSHRETVNGSWYIQDLCEMLGKYGSSLEFTELLTLVNRKVSQRRVDFCKDPSAIGKKQVPCFASMLTKKLHFFPKSN
B2: Caspase-8 (protein)
chain: SESQTLDKVYQMKSKPRGYCLIINNHNFAKAREKVPKLHSIRDRNGTHLDAGALTTTFEELHFEIKPHDDCTVEQIYEILKIYQLMDHSNMDCFICCILSHGDKGIIYGTDGQEAPIYELTSQFTGLKCPSLAGKPKVFFIQACQGDNYQKGIPVETDSEEQPYLEMDLSSPQTRYIPDEADFLLGMATVNNCVSYRNPAEGTWYIQSLCQSLRERCPRGDDILTILTEVNYEVSNKDDKKNMGKQMPQPTFTLRKKLVFPSD
B3: calpain I from porcine erythrocytes (protein)
chain: MAEEVITPVYCTGVSAQVQKLRAKELGLGRHENAIKYLGQDYEQLRAHCLQSGSLFRDEAFPPVPQSLGFKELGPNSSKTYGVKWKRPTELFSNPQFIVDGATRTDICQGALGDCWLLAAIASLTLNDTLLHRVVPHGQSFQNGYAGIFHFQLWQFGEWVDVVVDDLLPTKDGKLVFVHSAQGNEFWSALLEKAYAKVNGSYEALSGGSTSEGFEDFTGGVTEWYELRKAPSDLYSIILKALERGSLLGCSIDISSVLDMEAVTFKKLVKGHAYSVTGAKQVNYQGQMVNLIRMRNPWGEVEWTGAWSDGSSEWNGVDPYQRDQLRVRMEDGEFWMSFRDFLREFTRLEICNLTPDALKSQRVRNWNTTLYEGTWRRGSTAGGCRNYPATFWVNPQFKIRLEETDDPEDDYGGRESGCSFVLALMQKHRRRERRFGRDMETIGFAVYEVPPELVGQPVHLKRDFFLANASRARSEQFINLREVSTRFRLPPGEYVVVPSTFEPNKEGDFVLRFFSEKKAGTQELDDQVQAILPDEQVLSEEEIDENFKALFRQLAGEDMEISVRELRTILNRIISKHKDLRTKGFSLESCRSMVNLMDRDGNGKLGLVEFNILWNRIRNYLSIFRKFDLDKSGSMSAYEMRMAIESAGFKLNKKLFELIITRYSEPDLAVDFDNFVCCLVRLETMFRFFKTLDTDLDGVVTFDLFKWLQLTMFA
B4: Papain (protein)
chain: IPEYVDWRQKGAVTPVKNQGSCGSCWAFSAVVTIEGIIKIRTGNLNEYSEQELLDCDRRSYGCNGGYPWSALQLVAQYGIHYRNTYPYEGVQRYCRSREKGPYAAKTDGVRQVQPYNEGALLYSIANQPVSVVLEAAGKDFQLYRGGIFVGPCGNKVDHAVAAVGYGPNYILIKNSWGTGWGENGYIRIKRGTGNSYGVCGLYTSSFYPVKN
B5: Caspase-3 (protein)
chain: SGISLDNSYKMDYPEMGLCIIINNKNFHKSTGMTSRSGTDVDAANLRETFRNLKYEVRNKNDLTREEIVELMRDVSKEDHSKRSSFVCVLLSHGEEGIIFGTNGPVDLKKITNFFRGDRCRSLTGKPKLFIIQACRGTELDCGIETDSGVDDDMACHKIPVEADFLYAYSTAPGYYSWRNSKDGSWFIQSLCAMLKQYADKLEFMHILTRVNRKVATEFESFSFDATFHAKKQIPCIVSMLTKELYFYH
B6: schistosome legumain SmAE (Schistosoma mansoni asparaginyl endopeptidase) (protein)
chain: VSDNNKWAVLVAGSNGYPNYRHQADVCHAYHVLRSKGIKPEHIITMMYDDIAYNLMNPFPGKLFNDYNHKDWYEGVVIDYRGKNVNSKTFLKVLKGDKSAGGKVLKSGKNDDVFIYFTDHGAPGLIAFPDDELYAKEFMSTLKYLHSHKRYSKLVIYIEANESGSMFQQILPSNLSIYATTAANSTECSYSTFCGDPTITTCLADLYSYNWIVDSQTHHLTQRTLDQQYKEVKRETDLSHVQRYGDTRMGKLYVSEFQGS

Molecular target: T1, PhPr-Leu-ALys-CH═CH-COOEt

Protein | kobs/[I]
B1 | NI
B2 | NI
B3 | NI
B4 | NI
B5 | NI

Molecular target: T2, Cbz-Ala-Ala-AAsn-CH═CH-COOEt

Protein | kobs/[I]
B6 | 17400 M⁻¹ s⁻¹
B1 | NI
B2 | NI
B3 | NI
B4 | NI
B5 | NI

Molecular target: T3, Cbz-Ala-Ala-AAsn-CH═CH-CON(Bzl)-1-CH2-Na …

Protein | kobs/[I] [M⁻¹ s⁻¹]
B6 | 6180

Molecular target: T4, PhPr-Leu-AOrn-CH═CH-COOEt

Protein | kobs/[I]
B1 | NI
B2 | NI
B3 | NI
B4 | NI
B5 | NI

Molecular target: T5, Cbz-Ala-Ala-AAsn-CH═CH-CONHCH2CH2Ph

Protein | kobs/[I]
B1 | NI
B2 | NI
B3 | NI
B4 | 12 M⁻¹ s⁻¹
B5 | NI

Molecular target: T6, Cbz-Ala-Ala-AAsn-CH═CH-CON(CH3)Bzl

Protein | kobs/[I]
B1 | NI
B2 | NI
B3 | NI
B4 | NI
B5 | NI

Molecular target: T7, Cbz-Ala-Ala-AAsn-CH═CH-CON(Bzl)2

Protein | kobs/[I]
B6 | 5800 M⁻¹ s⁻¹
B1 | NI
B2 | NI
B3 | NI
B4 | 1 M⁻¹ s⁻¹
B5 | NI

Molecular target: T8, Cbz-Ala-Ala-AAsn-CH═CH-CO-indoline

Protein | kobs/[I]
B1 | NI
B2 | NI
B3 | NI
B4 | NI
B5 | NI

Molecular target: T9, Cbz-Ala-Ala-AAsn-CH═CH-CON(Bzl)-2-CH2-Na …

Protein | kobs/[I] [M⁻¹ s⁻¹]
B6 | 6100
